In the Immune Epitope Database (IEDB):
Each block holds one sequence with its values, some of them ahead of it.

Tests used:
[1] = target: HLA-B*15:01; assay: IEDB peptide-MHC binding, purified MHC/competitive/fluorescence; filed as Kd, often an IC50 or EC50 that approximates it; ≥ and ≤ were set here for values at or beyond the usual limits of such assays; conditions: source organism: Human immunodeficiency virus type 1 (MAL ISOLATE)
[2] = target: HLA-B*08:01; assay: as above
[3] = target: HLA-B*38:01; assay: as above; conditions: source organism: Human immunodeficiency virus type 1 (MAL ISOLATE)
[4] = target: HLA-A*30:01; assay: as above
[5] = target: HLA-A*01:01; assay: as above
[6] = target: HLA-B*15:17; assay: as above; conditions: source organism: Human immunodeficiency virus type 1 (MAL ISOLATE)
[7] = target: HLA-B*15:09; assay: as above; conditions: source organism: Human immunodeficiency virus type 1 (MAL ISOLATE)
[8] = target: HLA-B*27:05; assay: as above; conditions: source organism: Vibrio vulnificus CMCP6
[9] = target: HLA-B*14:02; assay: as above; conditions: source organism: Vibrio vulnificus CMCP6
[10] = target: HLA-A*11:01; assay: as above; conditions: source organism: Vibrio vulnificus CMCP6
[11] = target: HLA-A*02:01; assay: as above; conditions: source organism: Vibrio vulnificus CMCP6
[12] = target: HLA-B*58:01; assay: as above; conditions: source organism: Vibrio vulnificus CMCP6
[13] = target: HLA-B*53:01; assay: as above; conditions: source organism: Vibrio vulnificus CMCP6
[14] = target: HLA-B*18:01; assay: as above; conditions: source organism: Vibrio vulnificus CMCP6
[15] = target: HLA-B*07:02; assay: as above; conditions: source organism: Vibrio vulnificus CMCP6
[16] = target: HLA-B*44:02; assay: as above; conditions: source organism: Vibrio vulnificus CMCP6
[17] = target: HLA-A*23:01; assay: as above; conditions: source organism: Vibrio vulnificus CMCP6
[18] = target: HLA-B*39:01; assay: as above; conditions: source organism: Vibrio vulnificus CMCP6
[19] = target: HLA-A*29:02; assay: as above; conditions: source organism: Vibrio vulnificus CMCP6
[20] = target: HLA-A*66:01; assay: as above; conditions: source organism: Vibrio vulnificus CMCP6
[21] = target: HLA-B*51:01; assay: IEDB peptide-MHC binding, purified MHC/direct/fluorescence; filed as Kd, often an IC50 or EC50 that approximates it; ≥ and ≤ were set here for values at or beyond the usual limits of such assays; conditions: source organism: Vibrio vulnificus CMCP6
[22] = target: HLA-B*40:01; assay: as above
[23] = target: HLA-A*03:01; assay: as above
[24] = target: HLA-B*15:17; assay: as above; conditions: source organism: Vibrio vulnificus CMCP6
[25] = target: HLA-A*24:03; assay: as above; conditions: source organism: Vibrio vulnificus CMCP6
[26] = target: HLA-A*02:06; assay: as above; conditions: source organism: Vibrio vulnificus CMCP6
[27] = target: HLA-B*57:01; assay: as above; conditions: source organism: Vibrio vulnificus CMCP6
[28] = target: HLA-A*02:12; assay: as above; conditions: source organism: Vibrio vulnificus CMCP6
[29] = target: HLA-A*26:01; assay: as above
[30] = target: HLA-B*35:01; assay: as above; conditions: source organism: Escherichia coli
[31] = target: HLA-B*27:05; assay: as above; conditions: source organism: Escherichia coli
[32] = target: HLA-B*15:01; assay: as above; conditions: source organism: Escherichia coli
[33] = target: HLA-A*31:01; assay: as above; conditions: source organism: Escherichia coli
[34] = target: HLA-A*11:01; assay: as above; conditions: source organism: Escherichia coli
[35] = target: HLA-A*02:01; assay: as above; conditions: source organism: Escherichia coli
[36] = target: HLA-B*08:01; assay: as above; conditions: source organism: Escherichia coli
[37] = target: HLA-B*07:02; assay: as above; conditions: source organism: Escherichia coli
[38] = target: HLA-B*15:02; assay: as above; conditions: source organism: Salmonella enterica subsp. enterica serovar Dublin
[39] = target: HLA-A*01:01; assay: as above; conditions: source organism: Escherichia coli
[40] = target: HLA-A*69:01; assay: as above; conditions: source organism: Escherichia coli
[41] = target: HLA-A*02:07; assay: IEDB peptide-MHC binding, purified MHC/competitive/radioactivity; filed as Kd, often an IC50 or EC50 that approximates it; ≥ and ≤ were set here for values at or beyond the usual limits of such assays; conditions: source organism: Homo sapiens
[42] = target: HLA-A*02:01; assay: as above; conditions: source organism: Homo sapiens
[43] = target: HLA-B*58:01; assay: as above; conditions: source organism: Homo sapiens
[44] = target: HLA-A*29:02; assay: as above; conditions: source organism: Homo sapiens
[45] = target: HLA-B*57:01; assay: as above; conditions: source organism: Homo sapiens
[46] = source organism: Human immunodeficiency virus type 1 (MAL ISOLATE)
[47] = source organism: Vibrio vulnificus CMCP6
[48] = source organism: Escherichia coli

Sequence: GSEEIKSLY
Kd [1]: 1.07 µM
Kd [2, 46]: ≥ 20 µM
Kd [3]: ≥ 20 µM
Kd [4, 46]: ≥ 20 µM
Kd [5, 46]: 0.0503 µM
Kd [6]: 0.0989 µM
Kd [7]: ≥ 20 µM

Sequence: KQIVIINPM
Kd [8]: 0.0389 µM
Kd [9]: ≥ 5 µM
Kd [10]: ≥ 5 µM
Kd [11]: ≥ 5 µM
Kd [12]: ≥ 5 µM
Kd [2, 47]: ≥ 5 µM
Kd [13]: ≥ 5 µM
Kd [4, 47]: ≥ 5 µM
Kd [14]: ≥ 5 µM
Kd [15]: ≥ 5 µM
Kd [5, 47]: ≥ 5 µM
Kd [16]: ≥ 5 µM
Kd [17]: ≥ 5 µM
Kd [18]: ≥ 5 µM
Kd [19]: ≥ 5 µM
Kd [20]: ≥ 5 µM
Kd [21]: ≥ 20 µM
Kd [22, 47]: 0.238 µM
Kd [23, 47]: ≥ 20 µM
Kd [24]: ≥ 20 µM
Kd [25]: 0.135 µM
Kd [26]: 0.002 µM
Kd [27]: ≥ 20 µM
Kd [28]: 0.064 µM
Kd [29, 47]: ≥ 20 µM

Sequence: SSMNSDAAY
Kd [30]: 0.0115 µM
Kd [31]: ≥ 20 µM
Kd [32]: 0.15 µM
Kd [33]: ≥ 20 µM
Kd [34]: 0.144 µM
Kd [35]: ≥ 20 µM
Kd [36]: ≥ 20 µM
Kd [37]: ≥ 20 µM
Kd [38]: 0.026 µM
Kd [22, 48]: ≥ 20 µM
Kd [39]: 0.171 µM
Kd [23, 48]: ≥ 20 µM
Kd [40]: ≥ 20 µM
Kd [29, 48]: 0.0276 µM

Kd [41]: 12.7 µM
Kd [42]: 0.651 µM
Kd [43]: 0.589 µM
Kd [44]: 0.0193 µM
Kd [45]: ≥ 31.6 µM
Sequence: YMIDPSGVSY
